Here are results for 8 molecules from article doi:10.1101/201277 (bioRxiv, 2017).

Sequences and labels used below:
B1: aceB operator (BLI) (dsDNA)
DNA 1: ATGCATGTTGTGTGGGCTGAATCGCTTAACGTCACACAGGTGTCC
DNA 2: GGACACCTGTGTGACGTTAAGCGATTCAGCCCACACAACATGCAT
B2: aceB operator (filter binding) (dsDNA)
DNA 1: TGTTGTGTGGGCTGAATCGCTTAACGTCACACAGG
DNA 2: CCTGTGTGACGTTAAGCGATTCAGCCCACACAACA
B3: fructose-1-kinase (FruK), recombinant, separately purified (enzyme, E. coli, UniProt P0AEW9 1-312, looked up)
chain: MSRRVATITLNPAYDLVGFCPEIERGEVNLVKTTGLHAAGKGINVAKVLKDLGIDVTVGGFLGKDNQDGFQQLFSELGIANRFQVVQGRTRINVKLTEKDGEVTDFNFSGFEVTPADWERFVTDSLSWLGQFDMVCVSGSLPSGVSPEAFTDWMTRLRSQCPCIIFDSSREALVAGLKAAPWLVKPNRRELEIWAGRKLPEMKDVIEAAHALREQGIAHVVISLGAEGALWVNASGEWIAKPPSVDVVSTVGAGDSMVGGLIYGLLMRESSEHTLRLATAVAALAVSQSNVGITDRPQLAAMMARVDLQPFN
B4: fruB proximal operator (BLI) (dsDNA)
DNA 1: ATGCATGTTGTGTGGTTCTTGAAACGTTTCAGCTCACACAGGTCC
DNA 2: GGACCTGTGTGAGCTGAAACGTTTCAAGAACCACACAACATGCAT
B5: fruB proximal operator (filter binding) (dsDNA)
DNA 1: TGTTGTGTGGTTCTTGAAACGTTTCAGCTCACACAGG
DNA 2: CCTGTGTGAGCTGAAACGTTTCAAGAACCACACAACA
B6: catabolite repressor activator protein (Cra), wild-type (natural protein, E. coli, UniProt P0ACP1 1-334, looked up)
chain: MKLDEIARLAGVSRTTASYVINGKAKQYRVSDKTVEKVMAVVREHNYHPNAVAAGLRAGRTRSIGLVIPDLENTSYTRIANYLERQARQRGYQLLIACSEDQPDNEMRCIEHLLQRQVDAIIVSTSLPPEHPFYQRWANDPFPIVALDRALDREHFTSVVGADQDDAEMLAEELRKFPAETVLYLGALPELSVSFLREQGFRTAWKDDPREVHFLYANSYEREAAAQLFEKWLETHPMPQALFTTSFALLQGVMDVTLRRDGKLPSDLAIATFGDNELLDFLQCPVLAVAQRHRDVAERVLEIVLASLDEPRKPKPGLTRIKRNLYRRGVLSRS
B7: fruB distal operator (filter binding) (dsDNA)
DNA 1: TGTTGTGTGGGAGGCTGAATCGTTTCAATCACACAGG
DNA 2: CCTGTGTGATTGAAACGATTCAGCCTCCCACACAACA
B8: pfkA operator (BLI) (dsDNA)
DNA 1: ATGCATGTTGTGTGGCCTGAATCAATTCAGCTCACACAGGTGTCC
DNA 2: GGACACCTGTGTGAGCTGAATTGATTCAGGCCACACAACATGCAT

Series [1] has as its target T1, Cra (FruR) (Escherichia coli strain 3.300 …, UniProt P0ACP1 1-334). Nature of the series: BLI. Background: In BLI a coated tip is dipped into the sample, and binding shifts an interference pattern.
Series [2] deals with T2, Cra (FruR);FruK (fructose-1-kinase, 1-phosphofructokinase) (Escherichia coli strain 3.300 …, UniProt P0ACP1;P0AEW9 1-334;1-312, |). In words: BLI.
Series [3] deals with T1, Cra (FruR). Nature of the series: filter binding.
The target of series [4] is B6. In words: pull-down.
In series [5] the target is T2, Cra (FruR);FruK (fructose-1-kinase, …). In words: BLI. This is another data set of the same source.
Series [6] deals with the molecule itself. In words: elution from a phosphocellulose column.
The target of series [7] is T2, Cra (FruR);FruK (fructose-1-kinase, …). Nature of the series: BLI. This is another data set of the same source.

Like-named read-outs stand apart in the source and are kept apart here.

With B1, the binding result (with Cra (FruR) [1]; in series [2]) was “binds” in each case.

What is called Kd is the concentration at which binding is half-saturated. The low end stands for a tighter complex, the high end for a looser complex. Regarding B2, in the series with Cra (FruR) [3], the Kd worked out at 1.7 nM.

B3: in series [4], the Kd is less than 100 nM.

Take B4: the binding result (in the series with Cra (FruR) [1]; in series [5]) was “binds” throughout.

B5: binding with Cra (FruR) [3] was characterised by a dissociation constant (Kd) of 0.018 nM.

As a reminder, the stoichiometry N is a count of units in the complex or per binding partner. With B6, the “stoichiometry N” value in series [6] came out at 2.

Take B7: the Kd with Cra (FruR) [3] was found to be 0.018 nM.

For B8, the binding result (with Cra (FruR) [1]; in series [7]) was “binds” throughout.
